Source: the supplement of paper PMC9170038

System: MS2 coat protein
Assay: apparent KD of MS2 coat protein; higher = weaker reporter binding
Details: Eterna round: R107
Method in brief: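 Apparent KD stands for the median, per design, of fits to normalised cluster binding curves. The curves came from titrating on-chip-transcribed RNA switches on Illumina sequencing clusters with SNAP-549-labelled MS2 coat protein, twofold from 0.7 or 1.5 nM to 3 µM. Buffer was 100 mM Tris-HCl pH 7.5, 80 mM KCl, 4 mM MgCl2, without or with constant ligand.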

[1] = input ligand: theophylline 20 uM
[2] = input ligand: tryptophan 2.4 mM
[3] = input ligand: theophylline 2 mM

Row | Sequence | apparent KD of MS2 coat protein (input ligand: arginine 13.2 mM) | apparent KD of MS2 coat protein [1] | apparent KD of MS2 coat protein [2] | apparent KD of MS2 coat protein [3] | apparent KD of MS2 coat protein (input ligand: none)
1 | AGACAUGUAAGAUAAAUGACUUAUACAGAUACCAGACUAGUCAAUGUCCCUUGGCAGCUGCAUAACAUGAGGAUCACCCAUGUAA [JR_ExcTheophyA_Sub009] | 20.6 nM | 27.5 nM | 24.4 nM | – | –
2 | AGAGCAUUGACGGCCGCCACUCGUGUCACAUGAGGAUCACCCAUGUGACGGGUGAUCGCCCGGUUGAGGACCGGGUCAAUGCUCA [Omei Tryp SS B v8] | 10.4 nM | 13 nM | – | 11.2 nM | –
3 | AGAGUCUAGUCGGCCGCCACUCAUGUCCAAAGGACAUGAGGAUCACCCAUGUACCAAUGGUACAUGAGGACCGGGACUGGACUCA [Omei Tryp B SS C v2] | 227 nM | 343 nM | – | 120 nM | –
4 | AGAGUUAGACAAAAGUCUAGCUCACCAGAAGGAGCGUCCGAAAGGACAGGUAGGUCGCUGGUACAUGAGCAUCAGCCAUGUUCCU [ArgAS 15 #OpenEnded #AlternativeMS2] | 18.1 nM | 28 nM | 24.1 nM | 28.5 nM | 23.7 nM
5 | AGAGUUAGACAAAAGUCUAGCUCACCAGAAGGAGCGUCCGAAAGGACAGGUAGGUCGCUGGUGCAUGAGGAUCACCCAUGCUCCU [ArgAS 19 #OpenEnded #AlternativeMS2] | 66.6 nM | 171 nM | 211 nM | 243 nM | 204 nM
6 | AGAGUUAGACAAAAGUCUAGCUCACCAGAAGGAGCGUCCGAAAGGACAGGUAGGUCGCUGGUGCUUGAGGAUCACCCAAGUUCCU [ArgAS 22 #OpenEnded #AlternativeMS2] | 82.7 nM | 121 nM | 128 nM | 204 nM | 96.1 nM
7 | AGCAACUAGUCGGCCGCCACUCAUAUUACAUGAGGAUCACCCAUGUAUACAUGGUUGUUAUAUUUGAGGACCGGGACAGUUGCAU [JR_SSTryptoB_Sub018] | 59 nM | 69.9 nM | – | 75.7 nM | –
8 | AGCACACAUCCUGAUACCAGAGACAUGAGGAUCACCCAUGUCCGAUCGUCCUGCCUCAGACUCCCUUGGCAGCAGGAUGUGUGCU [Exclusion Theophylline B GF7] | 12.5 nM | 18.6 nM | 13.4 nM | – | –
9 | AGCAUCUAGUCGGCCGCCACUCUUAUUACAUGAGGAUCACCCAUGUUUAAUUCAUGGUUAUAUUUGAGGACCGGGACAUUUGCAU [JR_ExcTryptoB_Sub007] | 39.7 nM | 70.2 nM | – | 74.9 nM | –
10 | AGCCACUCGAGUGAUCCUCACGAGUGGCUACGAGGACCGGUACGGCCGCCACUCGAAUUAACAUGAGGAUCACCCAUGUAAUCAC [Brourdmod05] | 81.1 nM | 135 nM | – | 597 nM | –
11 | AGCCCAUUACAUGAGGAUCACCCAUGUGAUACCAGUCAGGAAACUGACCCUUGGCAGCGCAUGAGGAUCACCCAUGCGCUGGGCA [Omei Theo A Exc A v6] | 10 nM | 11.7 nM | 12.2 nM | – | –
12 | AGCGACAUGCGUGAUACCAGCUACAUGAGGAUCACCCAUGUAAGUAGGAAACUACUGUGUAGCCCUUGGCAGCACAAUGCAUGUC [Exclusion - Theophylline B (Freestyle 24)] | 20.3 nM | 37.2 nM | 20 nM | – | –
13 | AGCGAGAUCCGUGAUACCAGCUACAUGAGGAUCACCCAUGUGAGCGCGAAAGUGCUGUGUAGCCCUUGGCAGCACAGUGGAUCUC [#29 Exclusion-TheophyllineB] | 8.84 nM | 14.6 nM | 11.3 nM | – | –
14 | AGCGCGAAUAGAUCCAAAGUUAUUAGUGAGCGAGGACCGGUACGGCCGCCACUCGUGGCUCUACAUGAGGAUCACCCAUGUACAU [theeternabot_exclusion_MS2_Trp_A_10] | 52.2 nM | 234 nM | – | 384 nM | –
15 | AGCGUGCAUAGGAAAACUAUGUACGCAAAUCGAGGACCGGUACGGCCGCCACUCGUCCUCAACAUGAGGAUCACCCAUGUAAUAA [Mat - Exclusion - Trytophan A - D9] | 18.9 nM | 26.7 nM | – | 22.5 nM | –
16 | AGCUCGCGAAAGCGAGCAACAUGAUCCGAAGGAGCGCGCGAAAGCGCAGGUAGGUCGCGGACAUGAGGAUCACCCAUGUCUCCUU [MAT - Exclusion Arginine A - Mod of Eli - D14] | 41 nM | 57.3 nM | 62.2 nM | 63.2 nM | 66.2 nM
17 | AGCUCUGAUACGGCCGCCACUAGAUGGUGUUGUAAGAGACGCCUACAUGAGGAUCACCCAUGUCAUAGGACCGGGUAUAAAUACA [theeternabot_sameState_MS2_Trp_B_8] | 27.8 nM | 30.7 nM | 18.2 nM | 46.4 nM | 26.4 nM
18 | AGGAAGACGAUGGAUACCAGACAACCAGGGAACAUGAGGAUCACCCAUGUGAUUGAAAGGGUCCCUUGGCAGCCAGAAGCCGUUG [theeternabot_sameState_MS2_Theo_B_31] | 68.5 nM | 173 nM | 130 nM | – | –
19 | AGGACAUCGGGAAGGAGCGCAUCCAAACCACACAUGAGGAUCACCCAUGUAUAAAUAUGCAUGCAGGUAGGUCGCCCGGUGUCUC [Veaza] | 77 nM | 140 nM | 108 nM | 137 nM | 109 nM
20 | AGGUACGAAAACGUGGGUGAGUCGUACCAACGAGGACCGGUACGGCCGCCACUCGAAUAAACAUGAGGAUCACCCAUGUAAUAAU [T''-M-T'-T-MS2 - Design 6] | 25 nM | 58.3 nM | – | 66.5 nM | –
21 | AGUAGCUGCCGAAGGAGCGCCGUGUUCCUACAUGAGGAUCACCCAUGUAGCGUUGGGUUACGGCAGGUAGGUCGCGGCAGAUAGG [#18 Same State - Arginine B] | 23.1 nM | 38.2 nM | 22.4 nM | 24.5 nM | 30 nM
22 | AGUAGUUGACAAAAGUCAGCUACAACUGAAGGAGCGGGUGGGUGCCCAGGUAGGUCGCAGGAACAUGAGGAUCACCCAUGUAUAA [ArgAS 3 #BothOrNeither #OpenEnded] | 35.9 nM | 40.3 nM | 18.5 nM | 32.2 nM | 22.7 nM
23 | AGUCUUGUAGGAAGGAGCGCAUACUUCACAUGAGGAUCACCCAUGUCAAGACGUGAGUCAGUGCAGGUAGGUCGCCUAACUAAGA [Same State - Arginine B (Freestyle 14)] | 18.6 nM | 28.7 nM | 18 nM | 26.3 nM | 17.3 nM
24 | AGUGUUAUAACUGAUACCAGACCUUUGCUUAUACAUGAGGAUCACCCAUGUAAAAUGGCUGUCCCUUGGCAGCAGAGAAUACACA [#07 Same State - Theophylline B] | 42.9 nM | 45.2 nM | 47.1 nM | – | –
25 | AGUUUAGACACGGCCGCCACUCGUGACAGAUUUCGCAGUGGUCAACAUGAGGAUCACCCAUGUCUGAGGACCGGGUGUUGAGUUU [XTryp B #7] | 45.2 nM | 48.7 nM | – | 53.4 nM | –
